Results on 11 molecules are retold here after US20220177560A1 (Janssen / Centocor, published 2022).

The target in experiment [1] is human Aβ 1-28 peptide (human). The experiment in a line: SPR; no binding up to the maximum 1.2 µM tested.
For experiment [2], the target named is T1, Scrambled 3pE-28 (human).
T1 construct: also called scrambled Aβ 3pE-28; Aβ 3pE-28 peptide with amino acids 3-9 scrambled
T1 peptide: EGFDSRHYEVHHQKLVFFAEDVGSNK
The experiment in a line: SPR; no binding up to the maximum 1.2 µM tested.

The target of experiment [3] is human Aβ 1-28 peptide (human). The experiment in a line: SPR; KD limit divided by the KD for human 3pE Aβ.
Experiment [4] addresses T1, Scrambled 3pE-28. The experiment in a line: SPR; KD limit divided by the KD for human 3pE Aβ.
Experiment [5] concerns the target T2, mouse Aβ 3pE-28 peptide (mouse, pyroglutamate (pE) at the N-terminus, residue 3 of Aβ).
T2 construct: also called rodent Aβ3pE-28
T2 peptide: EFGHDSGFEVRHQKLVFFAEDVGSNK
The experiment in a line: SPR, antibody captured, peptide injected, 1:1 fit.

For experiment [6], the target named is T3, HU-3pE-beta-Amyloid (human).
T3 construct: also called the peptide
The experiment in a line: SPR (per Example 5); antigen peptide not given.

The target of experiment [7] is T2, mouse Aβ 3pE-28 peptide. The experiment in a line: SPR; KD for this peptide divided by the KD for human 3pE Aβ.
The target of experiment [8] is T4, human Aβ 3pE-28 peptide (human, pyroglutamate (pE) at the N-terminus, residue 3 of Aβ). The experiment in a line: SPR, antibody captured on anti-human or anti-mouse Ig chip, peptide injected, 1:1 fit; N=9.
Experiment [9] addresses T4, human Aβ 3pE-28 peptide. The experiment in a line: SPR; same value as in Table 5.
For experiment [10], the target named is T3, HU-3pE-beta-Amyloid. The experiment in a line: SPR; HU-3pE-beta-Amyloid 0.6 to 4.5 nM.
Experiment [11] has as its target T5, human FcRn (human, UniProt P55899 24-297; P61769 21-119).
T5 construct: the construct is not described; also called FcRn (human)
The experiment in a line: FcRn binding affinity; method not described; average of 5-6 replicates.

In experiment [12] the target is T6, cynomolgus FcRn (cynomolgus, UniProt Q8SPV9 24-297; Q8SPW0 21-119).
T6 construct: the construct is not described; also called FcRn (cyno)
The description is as above.

T4 sequence (peptide, as listed by the source): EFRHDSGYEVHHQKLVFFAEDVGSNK
Sequence of human Aβ 1-28 peptide (human) (peptide, as listed by the source): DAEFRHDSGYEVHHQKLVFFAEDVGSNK
T5 sequence (P55899 24-297 limits assumed, chain 1 of 2): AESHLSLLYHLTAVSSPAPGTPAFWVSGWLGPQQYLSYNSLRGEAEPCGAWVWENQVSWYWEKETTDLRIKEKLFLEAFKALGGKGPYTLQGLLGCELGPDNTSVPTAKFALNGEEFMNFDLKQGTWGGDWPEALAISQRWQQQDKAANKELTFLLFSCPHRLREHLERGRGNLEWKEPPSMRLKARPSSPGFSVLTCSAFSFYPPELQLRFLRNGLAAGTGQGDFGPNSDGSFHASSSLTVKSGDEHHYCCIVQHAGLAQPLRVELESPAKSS
T5 sequence (P61769 21-119 limits assumed, chain 2 of 2): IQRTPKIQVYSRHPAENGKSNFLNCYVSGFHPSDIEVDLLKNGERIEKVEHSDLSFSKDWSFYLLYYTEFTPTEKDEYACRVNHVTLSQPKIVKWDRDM
T6 sequence (Q8SPV9 24-297 limits assumed, chain 1 of 2): as the sequence (P55899 24-297 limits assumed, chain 1 of 2) above, with N39D, E44Q, G99S, S189G, S190N, L217M, S269T counted along it
T6 sequence (Q8SPW0 21-119 limits assumed, chain 2 of 2): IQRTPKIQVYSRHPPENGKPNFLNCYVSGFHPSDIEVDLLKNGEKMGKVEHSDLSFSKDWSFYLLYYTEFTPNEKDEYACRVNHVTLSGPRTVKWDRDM

B1: BAMB246 (human IgG1 chimera) (antibody)
heavy: not shown
light: DVVMTQTPLTLSVTIGQPASISCKSSQSLLDSNGKTYLTWLLQRPGQSPKRLIYLVSKLDSGVPDRFTGSGAGTDFTLKIIRVEAEDLGVYYCWQGTHFPYTFGGGTKLEIKRTVAAPSVFIFPPSDEQLKSGTASVVCLLNNFYPREAKVQWKVDNALQSGNSQESVTEQDSKDSTYSLSSTLTLSKADYEKHKVYACEVTHQGLSSPVTKSFNRGEC
notes: Mouse variable regions on a human IgG1 constant region; also called human chimeric parent; huIgG1 chimera
Consider B1, for which the Kd was over 1200 nM in [1]; over 1200 nM in experiment [2]; 39.6 nM in experiment [5]; 0.0139 nM in experiment [6]; 0.0126 nM in experiment [8]. The entries for the “Fold Selectivity” value in experiment [3], in [4] and in [7] were over 95000 fold, over 95000 fold and 3140 fold, respectively. In addition, the koff in [5] stood at 0.000404 s⁻¹; in experiment [8], 4.42e-05 s⁻¹. The kon turned out to be 10200 M⁻¹ s⁻¹ in experiment [5] and 3.53e+06 M⁻¹ s⁻¹ in experiment [8].

B2: BAMB623 (antibody, human IgG1, kappa, V domains shown)
VH: QVQLVQSGAEVKKPGASVKVSCKASGHVFTSYDMYWVRQAPGQSLEWIGYIDSDNGDTSYNQKFKGKATMTVDTSTSTVYMELSSLRSEDTAVYYCAYYRYAMDYWGQGTLVTVSS
VL: DVVMTQSPLSLPVTLGQPASISCKSSQSLLDSRAKTYLTWLQQRPGQSPRRLIYLVSKLDSGVPDRFSGSGSGTDFTLKISRVEAEDVGVYYCWQGTHFPYTFGGGTKLEIKR
notes: HFA variant of BAMB31, human IgG1
Consider B2, for which the Kd in experiment [6] was found to be 0.0183 nM.

B3: BAMB630 (antibody, human IgG1, kappa, V domains shown)
VH: QVQLVQSGAEVKKPGASVKVSCKASGHVFTSYDMYWVKQAPGQSLEWIGYIDSDNGDTSYNQKFKGKVTLTVDTSTSTVYMELSSLRSEDTAVYYCAYYRYAMDYWGQGTLVTVSS
VL: DVVMTQSPLSLPVTLGQPASISCKSSQSLLDSRAKTYLTWLLQRPGQSPRRLIYLVSKLDSGVPDRFSGSGSGTDFTLKISRVEAEDVGVYYCWQGTHFPYTFGGGTKLEIKR
notes: as for B2
B3 came in with a Kd in experiment [6] of 0.0383 nM.

B4: BAMB611 (antibody, human IgG1, kappa, V domains shown)
VH: QVQLVQSGAEVKKPGASVKVSCKASGHVFTSYDMYWVRQAPGQGLEWMGYIDSDNGDTSYNQKFKGRVTMTVDTSTSTVYMELSSLRSEDTAVYYCAYYRYAMDYWGQGTLVTVSS
VL: DVVMTQSPLSLPVTLGQPASISCKSSQSLLDSNGKTYLTWFQQRPGQSPRRLIYLVSKLDSGVPDRFSGSGSGTDFTLKISRVEAEDVGVYYCWQGTHFPYTFGGGTKLEIKR
notes: Human framework adapted (HFA) variant of BAMB31, human IgG1
B4 returned a Kd in experiment [6] of 1.52 nM.

B5: BAMB614 (antibody, human IgG1, kappa, V domains shown)
VH: QVQLVQSGAEVKKPGASVKVSCKASGHVFTSYDMYWVRQAPGQGLEWIGYIDSDNGDTSYNQKFKGRVTLTVDTSTSTVYMELSSLRSEDTAVYYCAYYRYAMDYWGQGTLVTVSS
VL: DVVMTQSPLSLPVTLGQPASISCKSSQSLLDSRAKTYLTWLQQRPGQSPRRLIYLVSKLDSGVPDRFSGSGSGTDFTLKISRVEAEDVGVYYCWQGTHFPYTFGGGTKLEIKR
notes: as for B2
B5 gave a Kd in experiment [6] of 0.016 nM.

B6: BAMB613 (antibody, human IgG1, kappa, V domains shown)
VH: QVQLVQSGAEVKKPGASVKVSCKASGHVFTSYDMYWVRQAPGQGLEWIGYIDSDNGDTSYNQKFKGKVTLTVDTSTSTVYMELSSLRSEDTAVYYCAYYRYAMDYWGQGTLVTVSS
VL: DVVMTQSPLSLPVTLGQPASISCKSSQSLLDSRAKTYLTWLQQRPGQSPRRLIYLVSKLDSGVPDRFSGSGSGTDFTLKISRVEAEDVGVYYCWQGTHFPYTFGGGTKLEIKR
notes: as for B2
Molecule B6 registered a Kd in experiment [6] of 0.0182 nM.

B7: BAMB612 (antibody, human IgG1, kappa, V domains shown)
VH: QVQLVQSGAEVKKPGASVKVSCKASGHVFTSYDMYWVRQSPGQGLEWIGYIDSDNGDTSYNQKFKGRVTLTVDTSTSTVYMELSSLRSEDTAVYYCAYYRYAMDYWGQGTLVTVSS
VL: DVVMTQSPLSLPVTLGQPASISCKSSQSLLDSRAKTYLTWLQQRPGQSPRRLIYLVSKLDSGVPDRFSGSGSGTDFTLKISRVEAEDVGVYYCWQGTHFPYTFGGGTKLEIKR
notes: as for B2
As to B7, in [6], the Kd was 0.0117 nM.

B8: BAMB631 (antibody, human IgG1, kappa, V domains shown)
VH: QVQLVQSGAEVKKPGASVKVSCKASGHVFTSYDMYWVRQAPGQSLEWMGYIDSDNGDTSYNQKFKGRVTLTVDTSTSTVYMELSSLRSEDTAVYYCAYYRYAMDYWGQGTLVTVSS
VL: DVVMTQSPLSLPVTLGQPASISCKSSQSLLDSRAKTYLTWLLQRPGQSPRRLIYLVSKLDSGVPDRFSGSGSGTDFTLKISRVEAEDVGVYYCWQGTHFPYTFGGGTKLEIKR
notes: as for B2
B8 gave a Kd in experiment [6] of 0.018 nM.

B9: BAMB674 (antibody, human IgG1, kappa)
heavy: not shown
light: DVVMTQSPLSLPVTLGQPASISCKSSQSLLDSRAKTYLTWLQQRPGQSPRRLIYLVSKLDSGVPDRFSGSGSGTDFTLKISRVEAEDVGVYYCWQGTHFPYTFGGGTKLEIKRTVAAPSVFIFPPSDEQLKSGTASVVCLLNNFYPREAKVQWKVDNALQSGNSQESVTEQDSKDSTYSLSSTLTLSKADYEKHKVYACEVTHQGLSSPVTKSFNRGEC
notes: Lead HFA variant, wild type human IgG1, HCDR2 N55S; also called BAMAB674; BAMB31 HFA mAb, wild type IgG1
Regarding B9, the Kd in experiment [9] is 0.0254 nM; in experiment [10] it was 0.0401 nM; in experiment [1], over 1200 nM; in experiment [2] it was over 1200 nM; in experiment [5], 45.5 nM; in experiment [11] it was 349 nM. The figures for the Kd in [12] and in [8] were 268 nM and 0.0254 nM, respectively. Further, the koff in experiment [10] was 0.000136 s⁻¹; in experiment [5], 0.000338 s⁻¹; in experiment [8], 8.32e-05 s⁻¹. The results for the kon in experiment [10], in experiment [5] and in experiment [8] were 3.39e+06 M⁻¹ s⁻¹, 7400 M⁻¹ s⁻¹ and 3.27e+06 M⁻¹ s⁻¹, respectively. In addition, the entries for the “Fold Selectivity” value in [3], in experiment [4] and in [7] were over 47000 fold, over 47000 fold and 1790 fold, respectively.

B10: BAMB700 (antibody, human IgG1, kappa)
heavy: not shown
light: DVVMTQSPLSLPVTLGQPASISCKSSQSLLDSRAKTYLTWLQQRPGQSPRRLIYLVSKLDSGVPDRFSGSGSGTDFTLKISRVEAEDVGVYYCWQGTHFPYTFGQGTKLEIKRTVAAPSVFIFPPSDEQLKSGTASVVCLLNNFYPREAKVQWKVDNALQSGNSQESVTEQDSKDSTYSLSSTLTLSKADYEKHKVYACEVTHQGLSSPVTKSFNRGEC
In experiment [10], B10 registered a Kd of 0.0342 nM, a koff of 9.86e-05 s⁻¹ and a kon of 2.88e+06 M⁻¹ s⁻¹.

B11: BAMB701 (antibody, human IgG1, kappa)
heavy: QVQLVQSGAEVKKPGASVKVSCKASGHVFTSYDMYWVRQAPGQGLEWIGYIDSDSGDTSYNQKFKGRVTLTVDTSTSTVYMELSSLRSEDTAVYYCAYYRYAMDYWGQGTLVTVSSASTKGPSVFPLAPSSKSTSGGTAALGCLVKDYFPEPVTVSWNSGALTSGVHTFPAVLQSSGLYSLSSVVTVPSSSLGTQTYICNVNHKPSNTKVDKKVEPKSCDKTHTCPPCPAPELLGGPSVFLFPPKPKDTLYITREPEVTCVVVDVSHEDPEVKFNWYVDGVEVHNAKTKPREEQYNSTYRVVSVLTVLHQDWLNGKEYKCKVSNKALPAPIEKTISKAKGQPREPQVYTLPPSREEMTKNQVSLTCLVKGFYPSDIAVEWESNGQPENNYKTTPPVLDSDGSFFLYSKLTVDKSRWQQGNVFSCSVMHEALHNHYTQKSLSLSPGK
light: DVVMTQSPLSLPVTLGQPASISCKSSQSLLDSRAKTYLTWLQQRPGQSPRRLIYLVSKLDSGVPDRFSGSGSGTDFTLKISRVEAEDVGVYYCWQGTHFPYTFGGGTKVEIKRTVAAPSVFIFPPSDEQLKSGTASVVCLLNNFYPREAKVQWKVDNALQSGNSQESVTEQDSKDSTYSLSSTLTLSKADYEKHKVYACEVTHQGLSSPVTKSFNRGEC
In experiment [10], B11 showed a Kd of 0.0314 nM, a koff of 9.47e-05 s⁻¹ and a kon of 3.01e+06 M⁻¹ s⁻¹.
